One block for each binder: values may come before it.
Tests used:
Test in all cases: SPR, Fab on captured PD-1-Fc;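 also: Alanine-scan PD-1 Fc fusions expressed transiently in ExpiCHO, captured on anti-human IgG Fc surface in IBIS MX96, anti-PD-1 Fab association 15 min, dissociation 30 min, Langmuir 1:1 fit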
[1] = molecular target: T1, human PD-1 ECD-Fc G119A (human, UniProt Q15116 21-170)
T1 construct: not shown: human IgG1 Fc, residues P101-K330

[2] = molecular target: T2, human PD-1 ECD-Fc S159A (human, UniProt Q15116 21-170)
T2 construct: not shown: human IgG1 Fc, residues P101-K330

[3] = molecular target: T3, human PD-1 ECD-Fc E136A (human, UniProt Q15116 21-170)
T3 construct: not shown: human IgG1 Fc, residues P101-K330

[4] = molecular target: T4, human PD-1 ECD-Fc V64K (human, UniProt Q15116 21-170)
T4 construct: also called Rat mutation V64K; not shown: human IgG1 Fc, residues P101-K330

[5] = molecular target: T5, human PD-1 ECD-Fc E61A (human, UniProt Q15116 21-170)
T5 construct: not shown: human IgG1 Fc, residues P101-K330

[6] = molecular target: T6, human PD-1 ECD-Fc Q88A (human, UniProt Q15116 21-170)
T6 construct: not shown: human IgG1 Fc, residues P101-K330

[7] = molecular target: T7, human PD-1 ECD-Fc T98A (human, UniProt Q15116 21-170)
T7 construct: not shown: human IgG1 Fc, residues P101-K330

[8] = molecular target: T8, human PD-1 ECD-Fc G22A (human, UniProt Q15116 21-170)
T8 construct: not shown: human IgG1 Fc, residues P101-K330

[9] = molecular target: T9, human PD-1 ECD-Fc T76A (human, UniProt Q15116 21-170)
T9 construct: not shown: human IgG1 Fc, residues P101-K330

[10] = molecular target: T10, human PD-1 ECD-Fc P28L (human, UniProt Q15116 21-170)
T10 construct: also called Rat mutation P28L; not shown: human IgG1 Fc, residues P101-K330

[11] = molecular target: T11, human PD-1 ECD-Fc G90A (human, UniProt Q15116 21-170)
T11 construct: not shown: human IgG1 Fc, residues P101-K330

[12] = molecular target: T12, human PD-1 ECD-Fc T59A (human, UniProt Q15116 21-170)
T12 construct: not shown: human IgG1 Fc, residues P101-K330

[13] = molecular target: T13, human PD-1 ECD-Fc G103A (human, UniProt Q15116 21-170)
T13 construct: not shown: human IgG1 Fc, residues P101-K330

[14] = molecular target: T14, human PD-1 ECD-Fc T153A (human, UniProt Q15116 21-170)
T14 construct: not shown: human IgG1 Fc, residues P101-K330

[15] = molecular target: T15, human PD-1 ECD-Fc D77A (human, UniProt Q15116 21-170)
T15 construct: not shown: human IgG1 Fc, residues P101-K330

[16] = molecular target: T16, human PD-1 ECD-Fc P89A (human, UniProt Q15116 21-170)
T16 construct: not shown: human IgG1 Fc, residues P101-K330

[17] = molecular target: T17, human PD-1 ECD-Fc Q167A (human, UniProt Q15116 21-170)
T17 construct: label printed under 'Rat mutation', values in r90; not shown: human IgG1 Fc, residues P101-K330

[18] = molecular target: T18, human PD-1 ECD-Fc S87A (human, UniProt Q15116 21-170)
T18 construct: not shown: human IgG1 Fc, residues P101-K330

[19] = molecular target: T19, human PD-1 ECD-Fc S157A (human, UniProt Q15116 21-170)
T19 construct: not shown: human IgG1 Fc, residues P101-K330

[20] = molecular target: T20, human PD-1 ECD-Fc A149G (human, UniProt Q15116 21-170)
T20 construct: not shown: human IgG1 Fc, residues P101-K330

[21] = molecular target: T21, human PD-1 ECD-Fc G164A (human, UniProt Q15116 21-170)
T21 construct: not shown: human IgG1 Fc, residues P101-K330

[22] = molecular target: T22, human PD-1 ECD-Fc D48A (human, UniProt Q15116 21-170)
T22 construct: not shown: human IgG1 Fc, residues P101-K330

[23] = molecular target: T23, human PD-1 ECD-Fc P162A (human, UniProt Q15116 21-170)
T23 construct: not shown: human IgG1 Fc, residues P101-K330

[24] = molecular target: T24, human PD-1 ECD-Fc H155A (human, UniProt Q15116 21-170)
T24 construct: not shown: human IgG1 Fc, residues P101-K330

[25] = molecular target: T25, human PD-1 ECD-Fc S73A (human, UniProt Q15116 21-170)
T25 construct: not shown: human IgG1 Fc, residues P101-K330

[26] = molecular target: T26, human PD-1 ECD-Fc C93A (human, UniProt Q15116 21-170)
T26 construct: not shown: human IgG1 Fc, residues P101-K330

[27] = molecular target: T27, human PD-1 ECD-Fc A50G (human, UniProt Q15116 21-170)
T27 construct: not shown: human IgG1 Fc, residues P101-K330

[28] = molecular target: T28, human PD-1 ECD-Fc A163G (human, UniProt Q15116 21-170)
T28 construct: not shown: human IgG1 Fc, residues P101-K330

[29] = molecular target: T29, human PD-1 ECD-Fc N116A (human, UniProt Q15116 21-170)
T29 construct: not shown: human IgG1 Fc, residues P101-K330

[30] = molecular target: T30, human PD-1 ECD-Fc K131A (human, UniProt Q15116 21-170)
T30 construct: not shown: human IgG1 Fc, residues P101-K330

[31] = molecular target: T31, human PD-1 ECD-Fc S60A (human, UniProt Q15116 21-170)
T31 construct: not shown: human IgG1 Fc, residues P101-K330
T31 sequence (Q15116 21-170 S60A): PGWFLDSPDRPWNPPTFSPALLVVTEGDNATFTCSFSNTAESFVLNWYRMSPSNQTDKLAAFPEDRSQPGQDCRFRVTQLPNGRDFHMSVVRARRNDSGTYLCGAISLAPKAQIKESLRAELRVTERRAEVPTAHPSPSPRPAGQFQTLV

T20 sequence (Q15116 21-170 A149G): as the sequence (Q15116 21-170 S60A) above, with A40S, A129G counted along it
T18 sequence (Q15116 21-170 S87A): as the sequence (Q15116 21-170 S60A) above, with A40S, S67A counted along it
T5 sequence (Q15116 21-170 E61A): as the sequence (Q15116 21-170 S60A) above, with A40S, E41A counted along it
T15 sequence (Q15116 21-170 D77A): as the sequence (Q15116 21-170 S60A) above, with A40S, D57A counted along it
T29 sequence (Q15116 21-170 N116A): as the sequence (Q15116 21-170 S60A) above, with A40S, N96A counted along it
T14 sequence (Q15116 21-170 T153A): as the sequence (Q15116 21-170 S60A) above, with A40S, T133A counted along it
T22 sequence (Q15116 21-170 D48A): as the sequence (Q15116 21-170 S60A) above, with D28A, A40S counted along it
T24 sequence (Q15116 21-170 H155A): as the sequence (Q15116 21-170 S60A) above, with A40S, H135A counted along it
T12 sequence (Q15116 21-170 T59A): as the sequence (Q15116 21-170 S60A) above, with T39A, A40S counted along it
T25 sequence (Q15116 21-170 S73A): as the sequence (Q15116 21-170 S60A) above, with A40S, S53A counted along it
T19 sequence (Q15116 21-170 S157A): as the sequence (Q15116 21-170 S60A) above, with A40S, S137A counted along it
T10 sequence (Q15116 21-170 P28L): as the sequence (Q15116 21-170 S60A) above, with P8L, A40S counted along it
T3 sequence (Q15116 21-170 E136A): as the sequence (Q15116 21-170 S60A) above, with A40S, E116A counted along it
T28 sequence (Q15116 21-170 A163G): as the sequence (Q15116 21-170 S60A) above, with A40S, A143G counted along it
T21 sequence (Q15116 21-170 G164A): as the sequence (Q15116 21-170 S60A) above, with A40S, G144A counted along it
T8 sequence (Q15116 21-170 G22A): as the sequence (Q15116 21-170 S60A) above, with G2A, A40S counted along it
T16 sequence (Q15116 21-170 P89A): as the sequence (Q15116 21-170 S60A) above, with A40S, P69A counted along it
T2 sequence (Q15116 21-170 S159A): as the sequence (Q15116 21-170 S60A) above, with A40S, S139A counted along it
T30 sequence (Q15116 21-170 K131A): as the sequence (Q15116 21-170 S60A) above, with A40S, K111A counted along it
T6 sequence (Q15116 21-170 Q88A): as the sequence (Q15116 21-170 S60A) above, with A40S, Q68A counted along it
T9 sequence (Q15116 21-170 T76A): as the sequence (Q15116 21-170 S60A) above, with A40S, T56A counted along it
T1 sequence (Q15116 21-170 G119A): as the sequence (Q15116 21-170 S60A) above, with A40S, G99A counted along it
T26 sequence (Q15116 21-170 C93A): as the sequence (Q15116 21-170 S60A) above, with A40S, C73A counted along it
T17 sequence (Q15116 21-170 Q167A): as the sequence (Q15116 21-170 S60A) above, with A40S, Q147A counted along it

- KD mutant/KD wild-type [1]: 1 ratio
- KD mutant/KD wild-type [2]: 1.1 ratio
- KD mutant/KD wild-type [3]: 0.8 ratio
- KD mutant/KD wild-type [4]: 35.7 ratio
- KD mutant/KD wild-type [5]: 1.2 ratio
- KD mutant/KD wild-type [6]: 1.4 ratio
- KD mutant/KD wild-type [7]: 1.1 ratio
- KD mutant/KD wild-type [8]: 1 ratio
- KD mutant/KD wild-type [9]: 1.4 ratio
- KD mutant/KD wild-type [10]: 1.9 ratio
- KD mutant/KD wild-type [11]: 1 ratio
- KD mutant/KD wild-type [12]: 0.9 ratio
- KD mutant/KD wild-type [13]: 1.1 ratio
- KD mutant/KD wild-type [14]: 0.9 ratio
- KD mutant/KD wild-type [15]: 2.8 ratio
- KD mutant/KD wild-type [16]: 1.1 ratio
- KD mutant/KD wild-type [17]: 0.8 ratio
- KD mutant/KD wild-type [18]: 1.3 ratio
- KD mutant/KD wild-type [19]: 0.9 ratio
- KD mutant/KD wild-type [20]: 0.8 ratio
- KD mutant/KD wild-type [21]: 1.1 ratio
- KD mutant/KD wild-type [22]: 1 ratio
- KD mutant/KD wild-type [23]: 1.3 ratio
- KD mutant/KD wild-type [24]: 1.1 ratio
- KD mutant/KD wild-type [25]: 0.9 ratio
- KD mutant/KD wild-type [26]: 1.2 ratio
- KD mutant/KD wild-type [27]: 1.4 ratio
- KD mutant/KD wild-type [28]: 1 ratio
- KD mutant/KD wild-type [29]: 1.4 ratio
- binding result [30]: no binding (tested: 1 nM to 50 nM)
- KD mutant/KD wild-type [31]: 1.8 ratio
B1: 12819.17149 Fab (Fab, V domains shown)
VH: EVQLLESGGGLVQPGGSLRLSCAASGFTFTRYDMVWVRQAPGKGLEWVAGIGDSNKMTRYAPAVKGRATISRDNSKNTLYLQMNSLRAEDTAVYYCAKGSCIACWDEAGRIDAWGQGTLVTVSS
VL: SYELTQDPAVSVALGQTVRITCSGGGSYDGSSYYGWYQQKPGQAPVTVIYNNNNRPSDIPDRFSGSSSGNTASLTITGAQAEDEADYYCGSYDRPETNSDYVGMFGSGTKVTVL
notes: monomeric Fab fragment

- KD mutant/KD wild-type [1]: 1 ratio
- KD mutant/KD wild-type [2]: 0.9 ratio
- KD mutant/KD wild-type [3]: 1 ratio
- KD mutant/KD wild-type [4]: 1 ratio
- KD mutant/KD wild-type [5]: 1 ratio
- KD mutant/KD wild-type [6]: 0.9 ratio
- KD mutant/KD wild-type [7]: 1 ratio
- KD mutant/KD wild-type [8]: 1 ratio
- KD mutant/KD wild-type [9]: 1.2 ratio
- KD mutant/KD wild-type [10]: 0.7 ratio
- KD mutant/KD wild-type [11]: 1 ratio
- KD mutant/KD wild-type [12]: 0.9 ratio
- KD mutant/KD wild-type [13]: 0.9 ratio
- KD mutant/KD wild-type [14]: 1 ratio
- KD mutant/KD wild-type [15]: 1 ratio
- KD mutant/KD wild-type [16]: 0.9 ratio
- KD mutant/KD wild-type [17]: 0.9 ratio
- KD mutant/KD wild-type [18]: 1 ratio
- KD mutant/KD wild-type [19]: 1 ratio
- KD mutant/KD wild-type [20]: 1 ratio
- KD mutant/KD wild-type [21]: 1 ratio
- KD mutant/KD wild-type [22]: 2.4 ratio
- KD mutant/KD wild-type [23]: 1.1 ratio
- KD mutant/KD wild-type [24]: 1 ratio
- KD mutant/KD wild-type [25]: 0.9 ratio
- KD mutant/KD wild-type [26]: 1.1 ratio
- KD mutant/KD wild-type [27]: 1.7 ratio
- KD mutant/KD wild-type [28]: 1.1 ratio
- KD mutant/KD wild-type [29]: 0.9 ratio
- KD mutant/KD wild-type [30]: 0.9 ratio
- KD mutant/KD wild-type [31]: 1 ratio
B2: 13112.15380 Fab (Fab, V domains shown)
VH: EVQLLESGGGLVQPGGSLRLSCAASGFTFSSYNMFWVRQAPGKGLEFVAEISGSNTGSRTWYAPAVKGRATISRDNSKNTLYLQMNSLRAEDTAVYYCAKSIYGGYCAGGYSCGVGLIDAWGQGTLVTVSS
VL: SYELTQDPAVSVALGQTVRITCSGGSSDYYGWFQQKPGQAPVTVIYYNNKRPSDIPDRFSGSSSGNTASLTITGAQAEDEADYYCGNADSSVGVFGSGTKVTVL
